2 compounds from patent publication US10646540B2, “Peptide inhibitors of twist” (City of Hope, priority 2016, dated 2020) can be followed below.

In experiment [1] the target is T1, TWIST1 (Homo sapiens, UniProt Q15672).
T1 construct: The cloning of TWIST1 into the pcDNA4-MycHis vector has been described previously [14]; expressed in transfected cells; host or cells: HEK-293
T1 sequence (Q15672 1-202): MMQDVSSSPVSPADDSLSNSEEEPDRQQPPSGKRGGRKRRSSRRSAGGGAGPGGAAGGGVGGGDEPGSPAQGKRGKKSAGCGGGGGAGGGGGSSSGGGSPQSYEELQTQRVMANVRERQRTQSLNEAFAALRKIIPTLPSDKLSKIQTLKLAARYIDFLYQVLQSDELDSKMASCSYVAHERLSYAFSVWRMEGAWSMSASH
As to the kind of experiment: Cell fractionation and western blot of TWIST1 and GFP in HEK-293 cells. Format: cell-based. As to the method:
(§1) HEK-293 cells were grown in McCoy's 5A medium supplemented with 10% fetal bovine serum (FBS) and 1% penicillin/streptomycin (P/S). Ovcar4 cells were grown in RPMI medium with 10% FBS and 1% P/S. All cells were maintained at 37° C. and 90% humidity in a tissue culture incubator with 5% CO2 atmosphere. Cells were passaged every 2-4 days as they became confluent, using 0.25% trypsin. Where indicated, cells were transfected using 5 μL per well Lipofectamine 2000 (Life Technologies, Carlsbad, Calif.) in a total of 2 mL per well of OptiMEM low serum medium (Life Technologies). For proteasome inhibition studies, MG132 was added to cells in normal medium four hours after transfection and left on overnight. 5 μM was used for western studies, and 1 μM was used for luciferase assays.
(§2) In order to create a competitive inhibitor for TWIST1-RELA binding, the WR domain from TWIST1 was fused to GFP. To achieve this, PCR was used to amplify the final 63 nucleotides of the TWIST1 gene (including stop codon) and add 5′ XhoI and 3′ BamHI restriction sites. The PCR fragment and the pEGFP-C3 vector were subjected to XhoI-BamHI double digest (New England BioLabs, Ipswich, Mass.) and the two were ligated together. GFP lacking the WR domain was used as a control, and includes residues at the C-terminus encoded by the multiple cloning site of the vector. As a result, the molecular weights of the two GFP proteins are indistinguishable on a western blot. To achieve equal expression of GFP-WR compared to unmodified GFP, it was necessary to transfect cells with three-fold more GFP-WR plasmid versus GFP. A one to one ratio was sufficient for CoIP illustrated in FIG. 4C. […]
Protein was run on 4% stacking, 10% resolving polyacrylamide gels and transferred to PVDF membrane (GE Healthcare Bio-Sciences, Pittsburgh, Pa.) on a Trans-Blot SD Semi-Dry Transfer Cell (Bio-Rad, Hercules, Calif.). […] Protein was detected using FemtoGlow chemiluminescent substrate (Michigan Diagnostics, Royal Oak, Mich.) and the Pxi4 imager (Syngene, Frederick, Md.). […]
Background: A western blot detects proteins with antibodies after separation by electrophoresis.

The test system of the next experiment is IL-8 promoter. Description: Dual luciferase assay, firefly luciferase under control of the IL-8 promoter, in Ovcar4 cells. Type of experiment: cell-based. The protocol:
as §1, with “assays. […]” for “assays.”
Ovcar4 cells were plated at 50,000-75,000 cells per well, in 500 μL RPMI, in a 24 well plate and allowed to adhere overnight. […] The day after transfection, luciferase expression was quantified using the Dual Luciferase Assay kit (Promega, Madison, Wis.) according to the manufacturer instructions.
Western blots were quantified using GeneTools software. Data were graphed and analyzed in Microsoft Excel and GraphPad Prism 6, respectively. […] Luciferase assays were analyzed using one-way ANOVA with correction for multiple comparisons. […]

The target in a further experiment is T2, TWIST1-RELA binding (Homo sapiens, UniProt Q15672).
T2 construct: The cloning of TWIST1 into the pcDNA4-MycHis vector has been described previously [14]; The wild type RELA gene was also cloned into pcDNA4-MycHis; expressed in transfected cells; host or cells: HEK-293
T2 sequence (Q15672 1-202): T1 sequence (Q15672 1-202)
As to the kind of experiment: Co-immunoprecipitation with RELA pulldown in transfected HEK-293 cells. The note with it: increasing GFP-WR expression, total GFP held constant with control GFP.
From the text: as §2, with “blot.” for “blot. To achieve equal expression of GFP-WR compared to unmodified GFP, it was necessary to transfect cells with three-fold more GFP-WR plasmid versus GFP. A one to one ratio was sufficient for CoIP illustrated in FIG. 4C.”
(§3) HEK-293 cells were plated at 500,000 cells per well, in 2 mL normal medium, in a 6 well plate and allowed to adhere. […] Cell pellets were lysed in RIPA buffer, and protein concentration was determined by BCA Protein Assay (Thermo Fisher, Waltham, Mass.). […]
(§4) Protein was run on 4% stacking, 10% resolving polyacrylamide gels and transferred to PVDF membrane (GE Healthcare Bio-Sciences, Pittsburgh, Pa.) on a Trans-Blot SD Semi-Dry Transfer Cell (Bio-Rad, Hercules, Calif.). […] Protein was detected using FemtoGlow chemiluminescent substrate (Michigan Diagnostics, Royal Oak, Mich.) and the Pxi4 imager (Syngene, Frederick, Md.). Quantitation was performed using the accompanying GeneTools software.

In a further experiment the target is T3, RELA (Homo sapiens, UniProt Q04206).
T3 construct: The wild type RELA gene was also cloned into pcDNA4-MycHis; expressed in transfected cells; host or cells: HEK-293
Description: Co-immunoprecipitation with GFP pulldown in transfected HEK-293 cells. Type of experiment: binding. The note with it: data not shown.
From the text: as §2, with “blot.” for “blot. To achieve equal expression of GFP-WR compared to unmodified GFP, it was necessary to transfect cells with three-fold more GFP-WR plasmid versus GFP. A one to one ratio was sufficient for CoIP illustrated in FIG. 4C.”
as §3, §4

In experiment [2] the target is T1, TWIST1. Described as above. Format: binding. As to conditions: increasing GFP-WR expression.
From the text: as §2, with “blot.” for “blot. To achieve equal expression of GFP-WR compared to unmodified GFP, it was necessary to transfect cells with three-fold more GFP-WR plasmid versus GFP. A one to one ratio was sufficient for CoIP illustrated in FIG. 4C.”
as §3, §4

“Also recorded” adds a separate entry of the source. Ends that are not written are not given here. Peptide text beside a SMILES is read from it. * marks the point of attachment. Cbz = O=C(OCc1ccccc1)*

T3 sequence (Q04206 whole entry): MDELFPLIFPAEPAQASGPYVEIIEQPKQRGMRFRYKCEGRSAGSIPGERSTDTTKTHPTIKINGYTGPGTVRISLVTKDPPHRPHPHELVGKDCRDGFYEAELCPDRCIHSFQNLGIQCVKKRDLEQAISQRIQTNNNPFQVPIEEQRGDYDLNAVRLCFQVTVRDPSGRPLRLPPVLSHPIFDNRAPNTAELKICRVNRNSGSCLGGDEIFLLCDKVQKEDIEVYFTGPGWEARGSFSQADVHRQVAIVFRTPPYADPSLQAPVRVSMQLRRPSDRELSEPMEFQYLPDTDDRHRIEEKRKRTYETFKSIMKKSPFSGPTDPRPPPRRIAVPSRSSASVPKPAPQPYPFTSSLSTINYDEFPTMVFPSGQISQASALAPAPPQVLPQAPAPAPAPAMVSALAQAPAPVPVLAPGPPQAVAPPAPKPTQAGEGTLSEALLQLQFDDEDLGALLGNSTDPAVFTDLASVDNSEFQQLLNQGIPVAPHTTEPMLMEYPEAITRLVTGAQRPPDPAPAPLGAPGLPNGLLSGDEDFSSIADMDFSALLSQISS

For `CC(C)C[C@@H](C=O)NC(=O)[C@H](CC(C)C)NC(=O)[C@H](CC(C)C)NC(=O)OCc1ccccc1` [MG132, reference compound] (Cbz-Leu-Leu-Leu-aldehyde), on TWIST1 [1] (MG132 5 μM overnight, cells expressing GFP-WR), the “levels of TWIST1 and GFP in the cytoplasmic fraction after proteasome inhibition” value is recorded as “partially rescue”. Also, in the experiment with IL-8 promoter (MG132 1 μM overnight, cells expressing GFP-WR), the “IL-8 promoter activity (FFluc expression) after proteasome inhibition” value is reported as “increases; also recorded: partial rescue”.

Consider “GFP-WR: fusion protein of GFP and the 20 amino acid WR domain of TWIST1, expressed from pEGFP-C3 as competitive inhibitor of TWIST1-RELA binding (LELSYAFSVWRMEGAWSMSASH; also: fused to GFP)”, for which the “TWIST1 co-precipitated with RELA (TWIST1-RELA binding)” value in the experiment with TWIST1-RELA binding is on record as “reduced in a dose-dependent manner; also recorded: reduced in a dose dependent fashion”. The “proportion of TWIST1 signal found in the cytoplasmic fraction” value with TWIST1 [1] (increasing GFP-WR transfection, western blot of fractionated cells) is on record as “slight increase; also recorded: mild increase”. Moreover, the “absolute levels of TWIST1 and GFP in cytoplasmic and nuclear fractions” value with TWIST1 [1] (increasing amount of GFP-WR transfected) is “decreased”. Besides, the “IL-8 promoter driven FFluc expression (normalized to Renilla luciferase)” value in the experiment with IL-8 promoter (increasing dose of GFP-WR, Ovcar4 cells co-transfected with TWIST1 and RELA) is reported as “dose dependent drop; also recorded: dose-dependent reduction”. Moreover, the “RELA co-precipitated with GFP” value in the experiment with RELA is “only trace amounts”. The “TWIST1 co-precipitated with GFP” value with TWIST1 [2] is on record as “more TWIST1 co-precipitated; also recorded: co-precipitated to a greater degree”.
